This series in a line: yeast display, Sf9 membrane polyspecificity reagent, FACS + sequencing; frameworks hold sequencing errors. An outline of the steps: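 In a synthetic yeast display library (Saccharomyces cerevisiae BJ5465), nanobody expression was induced with galactose for 36–48 hours. FACS gates were set low and high (top ~1%) using anti-HA fluorescence for expression and streptavidin fluorescence for binding of the Sf9 membrane reagent. Each polyreactivity label is drawn from the gate of origin.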
As for “QVQLVQSGGGLVQAGGSLRLSCAASGRNYSDNPMGWYRQAPGKERELVAANSSTGGTYYADSVKGRFTISRDNAKNTVYLQMNSLKPEDTAVYYCAARYRTLTKYYWGQGTQVSVSS”, the “polyreactivity (PSR sort gate)” value was “low polyreactivity”.
In the case of “QVQLVESGGGLVQAGGSLRLSCAASGRTFNPYVMGWYRQAPGKERELVARIRGSGTSTYYADSVKGRFTISRDNAKNTVYLHMNSLKPEDTAVYYCAAAQSKYSFYWGDYYYWGQGTQVTVSS”, the “polyreactivity (PSR sort gate)” value is “high polyreactivity”.
As for “QVQLVESGGGLVQAGGSLRLSCAASGSTSCIYAMGCYRQAPGKERELVAAISGSGVSTYYADSVKGRFTISRDNAKNTVYLQMNSLKPEDTAVYYCAAGYYGNGVFEYDYWGQGTQVTVSS”, the entry is “low polyreactivity”.
As for “QVQLVESGGGLVQAGGSLRLSCAASGRTFKRYAMGWYRQAPGKERELVAVITSGGSTYYADSVKGRFTISRDNAKNTVYLQMNSLKPEDTAVYYCAARYGVRIWHDALYGYWGQGTQVTVSS”, the entry is “high polyreactivity”; as for “QVQLVESGGGLVQAGGSLRLSCASSGSIFGGNAMGWYRQAPGKERELVAAITQSGDRTYYADSVKGRFTISRDNAKNTVYLQMNSLKPEDTAVYYCAARSPRKYGSIGYYWGQGTEVTVSS”, “high polyreactivity”; as for “QVQLVESGGGLVQAGGSLRLSCAASGSTFPSYAMGWYRQAPGKERELVAAITRSGGRTYYADSVKGRFTISRDNAKNTVYLQMNSLKPEDTAVYYCAADLGRNYDYWGQGTQVTVLS”, “low polyreactivity”.
The result for “QVQLVESGGGLVQAGGSLRISCAASGRIFNSYAMGWYRQAPGKERELVASISTSGGSTYYADSVKGRFTISRDNAKNTVYLQMNSLKPEDTAVYYCARRYYPKFWYTYDSWGQGTQVTVSS” reads “low polyreactivity”; that for “QVQLVESGGGLVKAGGSLRLSCAASGIIFSFYTMGWYRQAPGKQRELVAAITWSGGSTYYADSVKGRFTISRDNAKNTVYLQMNSLKPEDTAVYFCNARYPWRKRSQGYSWGQGTQVTVSS”, “low polyreactivity”; that for “QVQLVESGGGLVQAGGSLRLSCAASGRTFGFYAMGWYRQAPGKERELVAAITSSGGRTYYADSVKGRFTISRDNAKNTVYLQMNSLKPEDTAVYYCATSGRGKYIRYGYWGQGTQVTVSS”, “high polyreactivity”.
On to “QVQLVESGGGLVQAGGSLRLSCAASGYTFAYYVMGWYRQAPGKERELVATIRSRAGRTYYADSVKGRFTISRDNAKNTVYLQLNSLKPEDTAVYYCAAGWYYTYDYWGQGTQVTVSS”, for which the “polyreactivity (PSR sort gate)” value is on record as “high polyreactivity”.
As to “QVQLVESGGGLVQAGGSLRLSCAASGSIFRRYAMGWYRQAPGKERELVAAITGTGGRTYYADSVKGRFTMSRDNAKNTVYLQMNSLKPEDTAVYYCNKLVTYYRADPEYDYWGQGTHVTVSS”, the “polyreactivity (PSR sort gate)” value is recorded as “high polyreactivity”.
The result for “QVQLVESGGGLVQAGVSLRLSCAASGITIKGNAKGWYRQAPGKERELVAAISRRGGNTYYADSVKGRFTISRDNAKNTVYLQMNSLKPEDTAVYYCAAEYNQSFDYWGQGTQVTVSS” reads “low polyreactivity”; that for “QVQLVESGGGLVQAGGSLRLSCAASGFIFYRYTMGWYRPAPGKERELVASITWSDGSTSYADSVNGRFTISRDNAKNTVYLQMNSLKPEDTAVYYCAADVSYQVIYEYDYSGQGTQVTVSS”, “low polyreactivity”; that for “QVQLVESGGGLVQAGGSLRLSCAASGRTFHSYAMGWYRQAPGKERELVAVITRRGGSTYYADSVKGRFTISRDNAKNTVYLQMNSLKPEDTAVYYCNKGKSYTYDYWGQGTQVTVTS”, “high polyreactivity”.
The result for “QVQLQESGGGLVQAGGSLRLSCAASGSISNSAAMAWYRQAPGKERELVVSIGHGASSNYADSVKGRFTISRDNAKNTVYLQMNSLKPEDTAVYYCAAYPGFLDGFFYWGQSTQVTVSS” reads “high polyreactivity”; that for “QVQLVESGGGLVQAGGSLRLSCAASGITFKPYAMGWYRQAPGKERELVATITFRGGSTYYADSVKGRFTISRDNAKNTVYLQMNSLNPEDTAVYYCAAVTRRYVLSTFYYWGQGTQVTVSS”, “high polyreactivity”.

The values above are taken from the nanobody polyreactivity screen of Harvey et al. (2022).
